From patent US20230295259A1 (Protagonist Therapeutics, Inc., priority 2020, published 2023)
Starred links: 1 amine or outer side, 2 acyl side, 3 side chain; linkers in the order of their positions; H or OH if unused. Positions of bridges follow the written chain, without caps; N, C: chain ends. Non-standard residues stand in square brackets, D forms with d. Groups on a side chain read outwards from the residue. *: point of attachment. Glu(OMe) = COC(=O)CC[C@H](N[*:1])C(=O)[*:2]; C18 diacid = O=C(O)CCCCCCCCCCCCCCCCC(=O)*; Dip = N[C@H](C(=O)O)C(c1ccccc1)c1ccccc1; Palmitoyl = CCCCCCCCCCCCCCCC(=O)*; β3hF = N[C@H](CC(=O)O)Cc1ccccc1; 4Amb = NCc1ccc(C(=O)O)cc1; Isovaleryl = CC(C)CC(=O)*; Dap = NC[C@H](N)C(=O)O; AEEA = NCCOCCOCC(=O)O; Ahx = NCCCCCC(=O)O

T1: human ferroportin (SLC40A1) fused in frame with GFP, stably expressed in HEK293 cells (human, UniProt Q9NP59 1-571)
T1 sequence (looked up): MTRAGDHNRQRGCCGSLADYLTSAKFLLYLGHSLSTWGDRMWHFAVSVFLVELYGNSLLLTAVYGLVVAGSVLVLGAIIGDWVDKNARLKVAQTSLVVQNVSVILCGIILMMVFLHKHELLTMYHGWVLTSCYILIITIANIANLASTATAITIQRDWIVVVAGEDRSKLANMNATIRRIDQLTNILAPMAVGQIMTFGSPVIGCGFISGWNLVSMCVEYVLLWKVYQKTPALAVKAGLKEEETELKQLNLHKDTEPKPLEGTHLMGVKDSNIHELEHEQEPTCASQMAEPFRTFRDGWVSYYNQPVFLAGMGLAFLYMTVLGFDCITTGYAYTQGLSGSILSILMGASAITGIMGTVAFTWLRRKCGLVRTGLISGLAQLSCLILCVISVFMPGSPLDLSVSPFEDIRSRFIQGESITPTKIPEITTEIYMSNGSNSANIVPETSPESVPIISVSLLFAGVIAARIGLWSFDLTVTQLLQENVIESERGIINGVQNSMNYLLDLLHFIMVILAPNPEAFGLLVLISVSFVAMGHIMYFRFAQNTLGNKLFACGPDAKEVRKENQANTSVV

B1: Seq. No. 521 (peptide)
peptide: XXTHXPCIXXXC
modifications: [Isovaleric Acid]-[Glu(OMe)]-T-H-[Dpa]-P-C-I-[Lys(1PEG2_1PEG2_Dap_C18_Diacid)]-[bhPhe]-[(D)Lys(Ac)]-C-NH2
B2: Seq. No. 545 (peptide)
peptide: XXTHXPCIXXXC
modifications: [Isovaleric Acid]-[Glu(OMe)]-T-H-[Dpa]-P-C-I-[Lys(PEG2_1PEG2_DMG_N_2ae_C18_Diacid)]-[bhPhe]-[(D)Lys]-C-NH2
B3: Seq. No. 546 (peptide)
peptide: XEXHXPCIXXXC
modifications: [Isovaleric Acid]-E-[Dab]-H-[Dpa]-P-C-I-[Lys(1PEG2_1PEG2_Ahx_C18_Diacid)]-[bhPhe]-[(D)Lys]-C-NH2
B4: Seq. No. 522 (peptide)
peptide: XXTHXPCIXXXC
modifications: [Isovaleric Acid]-[Glu(OMe)]-T-H-[Dpa]-P-C-I-[Lys(1PEG2_1PEG2_Dap_C18_Diacid)]-[Igl]-[(D)Lys]-C-NH2
B5: Seq. No. 550 (peptide)
peptide: Isovaleryl-ETH[Dip]PC[4Amb]K([AEEA-AEEA-Ahx-C18 diacid])[β3hF][dK]C-NH2
modifications: not fully specified (bridges); cysteine pairing not given here
B6: Seq. No. 494 (peptide)
peptide: XXTHXPXIXXXXC
modifications: [Isovaleric Acid]-[Glu(OMe)]-T-H-[Dpa]-P-[(D)Cys]-I-[(D)Lys]-[bhPhe]-[Lys(PEG2_1PEG2_DMG_N_2ae_C18_Diacid)]-[(D)Lys]-C-NH2
B7: Seq. No. 478 (peptide)
peptide: Isovaleryl-ETHFPCIK(Ac)F[dK]C-NH2
modifications: disulfide 6-11 (inferred)
B8: Seq. No. 548 (peptide)
peptide: XEXHXPCIXXXXC
modifications: not fully specified; [Isovaleric Acid]-E-[Dab]-H-[Dpa]-P-C-I-[(D)Lys]-[bhPhe]-[Lys(Ahx_Palm)]-[(D)Lys]-C-NH2
B9: Seq. No. 537 (peptide)
peptide: XXTHXPCIXXXC
modifications: [Isovaleric Acid]-[(D)Arg]-T-H-[Dpa]-P-C-I-[Lys(1PEG2_1PEG2_Dap_C18_Diacid)]-[bhPhe]-[(D)Lys]-C-NH2
B10: Seq. No. 496 (peptide)
peptide: XXTXXPCIXXXC
modifications: [Isovaleric Acid]-[Glu(OMe)]-T-[4Pal]-[Dpa]-P-C-I-[Lys(1PEG2_1PEG2_Ahx_C18_Diacid)]-[bhPhe]-[(D)Lys]-C-NH2
B11: Seq. No. 544 (peptide)
peptide: XETHXPCIXXXC
modifications: [Isovaleric Acid]-E-T-H-[Dpa]-P-C-I-[Lys(PEG2_1PEG2_DMG_N_2ae_C18_Diacid)]-[bhPhe]-[(D)Lys]-C-NH2
B12: Seq. No. 551 (peptide)
peptide: XEXHXPCIXXXXC
modifications: not fully specified; [Isovaleric Acid]-E-[Lys(Acrylamide)]-H-[Dpa]-P-C-I-[(D)Lys]-[bhPhe]-[Lys(Ahx_Palm)]-[(D)Lys]-C-NH2
B13: Seq. No. 477 (peptide)
peptide: XETYXPCIXXXC
modifications: [Isovaleric Acid]-E-T-Y-[Dpa]-P-C-I-[Lys(1PEG2_1PEG2_Dap_C18_Diacid)]-[bhPhe]-[(D)Lys]-C-NH2
B14: Seq. No. 542 (peptide)
peptide: XETHXPCIXXXC
modifications: [Isovaleric Acid]-E-T-H-[Dpa]-P-C-I-[N-MeLys(Ahx_Palm)]-[bhPhe]-[(D)Lys(Carnitine)]-C-NH2
B15: Seq. No. 543 (peptide)
peptide: XETHXPCIXXXC
modifications: [Isovaleric Acid]-E-T-H-[Dpa]-P-C-I-[Lys(1PEG2_1PEG2_IsoGlu_C18_Diacid)]-[bhPhe]-[(D)Lys(Carnitine)]-C-NH2
B16: Seq. No. 541 (peptide)
peptide: XETHXPCIXXXXC
modifications: [Isovaleric Acid]-E-T-H-[Dpa]-P-C-I-[(D)Lys]-[bhPhe]-[N-MeLys(Ahx_Palm)]-[(D)Lys(Carnitine)]-C-NH2
B17: Seq. No. 498 (peptide)
peptide: XXTWXPCIXXXC
modifications: [sovaleric Acid]-[Glu(OMe)]-T-W-[Dpa]-P-C-I-[Lys(1PEG2_1PEG2_Ahx_C18_Diacid)]-[bhPhe]-[(D)Lys]-C-NH2
B18: Seq. No. 502 (peptide)
peptide: Isovaleryl-[Dap]TH[Dip]PCI[dK][β3hF]K([Ahx-Palmitoyl])[dR]C-NH2
modifications: disulfide 6-12 (inferred)
B19: Seq. No. 528 (peptide)
peptide: XXTHXPCIXXXXC
modifications: [Isovaleric Acid]-[Glu(OMe)]-T-H-[Dpa]-P-C-I-[(D)Lys]-[bhPhe]-[Lys(Ahx_DMG_N_2ae_Palm)]-[(D)Lys]-C-NH2
B20: Seq. No. 549 (peptide)
peptide: XEXHXPCIXXXXC
modifications: not fully specified; [Isovaleric Acid]-E-[Dap]-H-[Dpa]-P-C-I-[(D)Lys]-[bhPhe]-[Lys(Ahx_Palm)]-[(D)Lys]-C-NH2
B21: Seq. No. 536 (peptide)
peptide: Isovaleryl-[Glu(OMe)]TH[Dip]PC[dR]K([AEEA-AEEA-Dap-C18 diacid])[β3hF][dK]C-NH2
modifications: disulfide 6-11 (inferred)
B22: Seq. No. 519 (peptide)
peptide: XXTHXPCIXXXC
modifications: [Isovaleric Acid]-[Glu(OMe)]-T-H-[Dpa]-P-C-I-[Lys(PEG12_PEG12_Dap_C18_Diacid)]-[bhPhe]-[(D)Lys]-C-NH2
B23: Seq. No. 476 (peptide)
peptide: XETHXPCIXXXXC
modifications: [Isovaleric Acid]-E-T-H-[Dpa]-P-C-I-[Lys(Ac)]-[bhPhe]-[Lys(Ahx_Palm)]-[(D)Arg]-C-NH2
B24: Seq. No. 497 (peptide)
peptide: XXTYXPCIXXXC
modifications: [Isovaleric Acid]-[Glu(OMe)]-T-Y-[Dpa]-P-C-I-[Lys(1PEG2_1PEG2_Ahx_C18_Diacid)]-[bhPhe]-[(D)Lys]-C-NH2
B25: Seq. No. 533 (peptide)
peptide: XXTHXPCIXXXC
modifications: [Isovaleric Acid]-[IsoGlu]-T-H-[Dpa]-P-C-I-[Lys(1PEG2_1PEG2_Ahx_C18_Diacid)]-[bhPhe]-[(D)Lys(PEG11_OMe)]-C-NH2
B26: Seq. No. 508 (peptide)
peptide: XXTHXPCIXXXC
modifications: [Isovaleric Acid]-[Glu(OMe)]-T-H-[Dpa]-P-C-I-[Lys(1PEG2_1PEG2_Dap_C18_Diacid)]-[Hph]-[(D)Lys]-C-NH2

What follows are binders tested against T1, human ferroportin (SLC40A1) fused in … (assay: cell-based or functional assay).

Row | IC50: FPN internalisation | Binder
1 | 10.1 nM | B1
2 | 14.6 nM | B2
3 | 53.6 nM | B3
4 | 19.2 nM | B4
5 | 13.1 nM | B5
6 | 107 nM | B6
7 | 69.9 nM | B7
8 | 46.3 nM | B8
9 | 33.8 nM | B9
10 | 10.6 nM | B10
11 | 9.26 nM | B11
12 | 90 nM | B12
13 | 246 nM | B13
14 | 9.02 nM | B14
15 | 13.2 nM | B15
16 | 26 nM | B16
17 | 124 nM | B17
18 | 55.7 nM | B18
19 | 32.4 nM | B19
20 | 50.8 nM | B20
21 | 94.1 nM | B21
22 | 24.7 nM | B22
23 | 1760 nM | B23
24 | 35.3 nM | B24
25 | 203 nM | B25
26 | 24.2 nM | B26
